Assay results reported in US20120135912A1 (PERSEID THERAPEUTICS, published 2012).

Experiments:
[1] = molecular target: T1, human LPAM-1-Fc (alpha4-Fc/beta7-Fc heterodimer) (human); test: SPR (BIACORE), retest with new polypeptide preparations and new LPAM-1-Fc
T1 construct: Soluble heterodimer from CHO cells, Protein A purified
Description: In this screening method, Biacore sensor chips were derivatized with anti-human IgG. After capture of VLA4-Fc or LPAM-1-Fc ligands on these surfaces, 2D-VCAM-1 variant polypeptides in buffer were allowed to flow over the ligand-coated sensor chips. The ability of a 2D-VCAM variant polypeptide to bind to a specific binding partner (i.e., VLA4-Fc or LPAM-1-Fc) was evaluated. Control protein (i.e., human 2D-VCAM-1 polypeptide (SEQ ID NO:2) or Q38L-2D-VCAM-1 polypeptide (SEQ ID NO:10)), was also allowed to flow over the ligand-coated sensor chips and the abilities of these molecules to bind to VLA4-Fc or LPAM-1-Fc were similarly evaluated for comparison. Using the Biacore system, the association (kₒₙ) and dissociation (koff) rate constant of the protein of interest binding to VLA4-Fc or LPAM-1-Fc ligands can be evaluated and used to calculate the equilibrium dissociation constant, KD. Variant 2D-VCAM-1 polypeptides having increased binding affinities for VLA4-Fc and/or LPAM-1-Fc, compared to human 2D-VCAM-1 and/or Q38L-2D-VCAM-1, were identified.
All BIACORE analyses were performed on a BIACORE 2000 system or BIACORE 3000 system (GE Healthcare) at room temperature (RT, 25° C.), HBS-P buffer (10 mM Hepes (pH 7.4), 150 mM NaCl, 0.005% surfactant P20) supplemented with 1 mM MnCl₂ (HBS-P-Mn) was used as the flow buffer for all experiments except where indicated.
Table 6B presents binding affinities of representative 2D-VCAM-1 variant polypeptides of the invention to LPAM-1-Fc when retested with new polypeptide preparations and new LPAM-1-Fc ligand and measured by the standard BICORE assay described above. The controls human 2D-VCAM-1 or the Q38L 2D-VCAM-1 polypeptide was not reassayed.

[2] = molecular target: T2, human VLA4-Fc (alpha4-Fc/beta1-Fc heterodimer) (human); test: SPR (BIACORE), retest with new polypeptide preparations and new VLA4-Fc
T2 construct: Soluble heterodimer from CHO cells, Protein A purified; also called VLA-Fc
Description: (§1) The kinetic 2D-VCAM-1 assay measures binding kinetics of a dimeric ligand (e.g., VLA-Fc fusion protein or LPAM-1-Fc fusion protein) coated to sensor chips and monomeric analyte (e.g., 2D-VCAM-1 variant polypeptides) in the mobile phase. Goat anti-human IgG antibody (Jackson ImmunoResearch, Catalog No. 105-005-098) was immobilized on CM-5 sensor chips (GE Healthcare, Catalog No. BR-1000-14) according to the manufacturer's protocol. Antibody was diluted to 30 μg/ml in immobilization buffer (10 mM sodium acetate, pH 5.0 (GE Healthcare, Catalog No. BR-1003-51)). […] Un-reacted sites were quenched with 35 μl of 1 M ethanolamine-HCl pH 8.5 (GE Healthcare, Catalog No. BR-1000-50). This procedure typically yielded 15,000 response units (RU) of coupled antibody. VLA4-Fc or LPAM-1-Fc, prepared as described in Examples 3 and 4, respectively, were bound to antibody-coated sensor chips by injection of 20 μl of ligand solution (20 μg/ml protein in HBS-P-Mn buffer at a flow rate of 10 μl/min). Ligand capture levels were typically 200-300 RU. 2D-VCAM-1 variant polypeptides were diluted in HBS-P-Mn and flowed over ligand-coated sensor chips for 2 min at 30 μl/min, followed by 5 min incubation with in HBS-P-Mn containing no protein at the same flow rate. For 2D-VCAM-1 variant polypeptides having very slow dissociation rates from VLA4-Fc or LPAM-1-Fc, kinetic assays were also conducted using longer dissociation times (e.g., 20 min). Rmax signal levels for 2D-VCAM-1 variant polypeptides ranged from approximately 5-25 RU. Regeneration between cycles was performed by 200 sec incubation with 10 mM glycine buffer (pH 1.7) at 50 μl/min. New chips were subjected to 4-5 cycles of capture/binding/regeneration prior to use in actual experiments. Data from a reference cell containing goat anti-human IgG capture antibody alone was subtracted from data obtained from flow cells containing captured VLA4-Fc or LPAM-1-Fc. Typically, 8 dilutions of 2D-VCAM-1 variant polypeptides ranging from 150 nM to 0.069 nM were analyzed against a blank reference (HBS-P-Mn buffer alone).

[3] = molecular target: T2, human VLA4-Fc (alpha4-Fc/beta1-Fc …); test: SPR (BIACORE), VLA4-Fc captured by anti-human IgG, 1 mM MnCl2, 1:1 Langmuir
Description: as §1

[4] = molecular target: T1, human LPAM-1-Fc (alpha4-Fc/beta7-Fc …); test: ELISA, LPAM-1-Fc coated, 1 mM MnCl2; from EC50 values
Description: The relative binding affinities of various 2D-VCAM variant proteins to immobilized LPAM-1-Fc (α4-Fc/β-7-Fc) heterodimer, relative to a control protein (e.g., Q38L-2D-VCAM-1 or human 2D-VCAM-1), were determined using a solid-phase ELISA assay. MAXISORP™ ELISA plates (NUNC) were coated overnight at 4° C. with 50 ul LPAM-1-Fc heterodimer (2 ug/ml in TBS-M, TBS (25 mM TRIS-HCl pH 7.5, 150 mM NaCl with 1 mM MnCl2), washed with TBS-T (TBS with 0.05% Tween-20), blocked with 200 ul 3% milk in TBS-M for 1 hr at room temperature, and washed again with TBS-T. A four-fold dilution series of the purified 2D-VCAM-1 variants to he assayed was made in COSTAR U-bottom plates in TBS-TMC (TBS with 0.05% Tween-20, 1 mM MnCl2 and 1% casein; Sigma) with a starting concentration of 8.2 uM (200 ug/ml). The dilution, series were transferred into the ELISA plate which was incubated at room temperature for 2 h and subsequently washed with TBS-T. Bound 2D-VCAM-1 protein was detected by incubation with 0.5 ug/ml of biotinylated anti-human VCAM antibody (R&D Systems, Catalog No. BAF809) in TBS-TMC for 1 h at room temperature followed by a TBS-T wash and subsequent incubation with 1:2000 dilution of streptavidin-HRP (BD Biosciences, Catalog No. 554066) in TBS-TMC for 30 min at room temperature. […] Typical development times ranged from 5-15 min and development was stopped by addition of 50 ul 2M H₂SO₄ (EM, Catalog No. SX1244-75). […] Fold-improvement in binding was calculated relative to a control protein (Q38L-2D-VCAM-1) assayed on the same plate.

T1 sequence (chain, as listed by the source limits assumed, chain 1 of 2): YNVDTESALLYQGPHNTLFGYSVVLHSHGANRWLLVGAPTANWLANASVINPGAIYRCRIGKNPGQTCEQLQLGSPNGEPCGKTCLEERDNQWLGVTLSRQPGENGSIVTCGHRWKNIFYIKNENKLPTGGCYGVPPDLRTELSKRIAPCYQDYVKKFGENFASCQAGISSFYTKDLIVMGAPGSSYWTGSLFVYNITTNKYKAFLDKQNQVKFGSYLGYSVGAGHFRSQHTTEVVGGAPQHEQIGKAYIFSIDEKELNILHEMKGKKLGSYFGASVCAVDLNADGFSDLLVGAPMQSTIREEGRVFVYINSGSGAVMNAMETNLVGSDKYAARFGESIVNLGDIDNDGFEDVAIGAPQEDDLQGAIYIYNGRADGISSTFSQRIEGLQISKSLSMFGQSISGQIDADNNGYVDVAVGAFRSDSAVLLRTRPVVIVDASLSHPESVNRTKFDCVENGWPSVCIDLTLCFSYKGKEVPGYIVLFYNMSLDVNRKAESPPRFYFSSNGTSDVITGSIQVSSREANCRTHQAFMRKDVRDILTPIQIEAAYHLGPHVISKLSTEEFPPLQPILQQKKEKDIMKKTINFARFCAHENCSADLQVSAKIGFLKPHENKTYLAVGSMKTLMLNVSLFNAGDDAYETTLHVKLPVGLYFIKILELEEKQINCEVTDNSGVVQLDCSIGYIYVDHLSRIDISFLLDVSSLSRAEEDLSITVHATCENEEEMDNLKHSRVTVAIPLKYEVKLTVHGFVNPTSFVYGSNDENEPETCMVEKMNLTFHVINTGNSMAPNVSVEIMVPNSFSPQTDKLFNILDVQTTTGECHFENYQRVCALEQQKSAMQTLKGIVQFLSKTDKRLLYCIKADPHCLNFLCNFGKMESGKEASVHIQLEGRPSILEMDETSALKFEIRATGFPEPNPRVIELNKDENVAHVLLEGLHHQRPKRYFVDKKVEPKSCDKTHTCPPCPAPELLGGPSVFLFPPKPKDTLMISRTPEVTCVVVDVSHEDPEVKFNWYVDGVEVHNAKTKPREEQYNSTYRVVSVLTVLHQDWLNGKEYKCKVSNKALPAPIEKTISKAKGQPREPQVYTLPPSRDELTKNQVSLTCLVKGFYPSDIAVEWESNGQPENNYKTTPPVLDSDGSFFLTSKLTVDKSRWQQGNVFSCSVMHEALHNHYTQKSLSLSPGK
T1 sequence (chain, as listed by the source limits assumed, chain 2 of 2): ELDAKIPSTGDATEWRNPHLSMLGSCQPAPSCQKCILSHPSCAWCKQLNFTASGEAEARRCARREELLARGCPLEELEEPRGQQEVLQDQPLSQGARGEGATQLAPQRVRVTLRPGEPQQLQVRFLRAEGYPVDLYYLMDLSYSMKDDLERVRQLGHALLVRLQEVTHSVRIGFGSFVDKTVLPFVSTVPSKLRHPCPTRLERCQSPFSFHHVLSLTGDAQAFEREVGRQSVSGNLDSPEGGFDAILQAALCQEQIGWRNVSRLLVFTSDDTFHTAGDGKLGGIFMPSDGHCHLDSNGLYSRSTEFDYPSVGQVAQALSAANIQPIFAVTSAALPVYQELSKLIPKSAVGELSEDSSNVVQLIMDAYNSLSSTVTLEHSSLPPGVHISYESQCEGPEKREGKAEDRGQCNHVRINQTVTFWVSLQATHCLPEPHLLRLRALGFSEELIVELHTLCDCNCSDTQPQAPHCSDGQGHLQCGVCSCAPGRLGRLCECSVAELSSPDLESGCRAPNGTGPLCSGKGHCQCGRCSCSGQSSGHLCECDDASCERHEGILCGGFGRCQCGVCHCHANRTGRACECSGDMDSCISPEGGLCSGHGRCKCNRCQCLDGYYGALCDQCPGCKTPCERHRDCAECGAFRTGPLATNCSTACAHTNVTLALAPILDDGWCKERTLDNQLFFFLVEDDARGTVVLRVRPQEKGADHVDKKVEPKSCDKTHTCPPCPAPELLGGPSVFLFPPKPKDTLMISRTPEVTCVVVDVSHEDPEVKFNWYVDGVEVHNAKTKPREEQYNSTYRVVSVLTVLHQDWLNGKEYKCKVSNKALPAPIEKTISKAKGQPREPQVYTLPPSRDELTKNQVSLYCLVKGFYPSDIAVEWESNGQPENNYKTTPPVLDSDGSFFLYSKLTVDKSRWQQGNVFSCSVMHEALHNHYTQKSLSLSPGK
T2 sequence (chain, as listed by the source limits assumed, form in doubt, chain 1 of 2): as the sequence (chain, as listed by the source limits assumed, chain 1 of 2) above
T2 sequence (chain, as listed by the source limits assumed, form in doubt, chain 2 of 2): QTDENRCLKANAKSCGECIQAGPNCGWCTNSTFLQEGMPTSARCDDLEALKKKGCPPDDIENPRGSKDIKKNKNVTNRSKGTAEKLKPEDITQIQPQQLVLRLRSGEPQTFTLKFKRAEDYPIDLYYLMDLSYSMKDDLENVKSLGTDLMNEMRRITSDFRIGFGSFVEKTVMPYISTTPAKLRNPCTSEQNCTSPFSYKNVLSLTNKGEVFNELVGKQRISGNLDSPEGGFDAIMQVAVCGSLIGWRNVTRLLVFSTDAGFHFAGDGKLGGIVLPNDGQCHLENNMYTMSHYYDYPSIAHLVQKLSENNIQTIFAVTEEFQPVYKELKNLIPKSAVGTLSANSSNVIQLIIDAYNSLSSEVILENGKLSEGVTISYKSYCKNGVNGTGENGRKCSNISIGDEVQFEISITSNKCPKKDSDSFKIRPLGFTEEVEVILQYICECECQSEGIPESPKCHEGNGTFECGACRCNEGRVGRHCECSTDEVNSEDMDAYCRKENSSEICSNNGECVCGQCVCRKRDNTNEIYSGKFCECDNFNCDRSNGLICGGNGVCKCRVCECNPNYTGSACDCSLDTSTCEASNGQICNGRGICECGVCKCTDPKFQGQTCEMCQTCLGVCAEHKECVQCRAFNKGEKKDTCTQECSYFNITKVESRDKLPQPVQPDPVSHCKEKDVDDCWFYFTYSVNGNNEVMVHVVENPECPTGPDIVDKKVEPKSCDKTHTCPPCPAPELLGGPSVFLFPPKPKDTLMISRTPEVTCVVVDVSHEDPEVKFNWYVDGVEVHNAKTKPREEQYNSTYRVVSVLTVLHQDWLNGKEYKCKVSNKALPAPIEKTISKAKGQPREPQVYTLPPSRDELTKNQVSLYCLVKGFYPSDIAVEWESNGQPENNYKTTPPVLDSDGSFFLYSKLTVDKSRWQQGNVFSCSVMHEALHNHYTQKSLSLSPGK

Binder | Kd [1] [nM] | Kd [2] [nM] | Kd [3] [nM] | binding affinity for VLA4-Fc relative to human 2D-VCAM-1 [3] [fold] | fold improvement in binding relative to Q38L-2D-VCAM-1 [4] [fold]
2D-VCAM-1 variant Clone 46 (ligand, also called Clone 046; not shown: His tag) FKIETTPESRYLAQIGDSVSLTCSTTGCESPFFSWRPQLDAPLNGKVTNEGTTSTLTMNPVSFGNEHSYLCTATCESRKLEKGIQVEIYSFPKDPEIHLSGPLEAGKPITVKCSVADVYPFDRLEIDLLKGDHLMKSQEFLEDADRKSLETKSLEVTFTPVIEDIGKVLVCRAKLHIDEMDSVPTVRQAVKELQVYISP | 77 | 1.95 | 0.123 | 124 | 1
2D-VCAM-1 variant Clone 47 (ligand, also called Clone 047; not shown: His tag) FKIETTPESRYLAQIGDSVSLTCSTTGCESPFFSWRPLLDSPLNGKVTNEGTTSTLTMNPVSFGNEHSYLCTATCESRKLEKGIQVEIYSFPKDPEIHLSGPLEAGKPITVKCSVADVYPFDRLEIDLLKGDHLMKSQEFLEDADRKSLETKSLEVTFTPVIEDIGKVLVCRAKLHIDEMDSVPTVRQAVKELQVYISP | 40 | 0.68 | 0.148 | 103 | 17
2D-VCAM-1 variant Clone 59 (ligand, also called Clone 059; not shown: His tag) FKIETTPESRYLAQIGDSVSLTCSTTGCESPFFSWRPLLDSPLNGKVTNEGTTSTLTMNPVSFGNEHSYLCTATCESRKLEKGIQVEIYSFPKDPEIHLSGPLEAGKPITVKCSVADVYPFDRLEIDLLKGDHLMKSQEFFEDAAWKSLETKSLEVTFTPVIEDIGKVLVCRAKLHIDEMDSVPTVRQAVKELQVYISP | 2.6 | 0.095 | 0.0501 | 303 | 80

Next, values leading:

Kd [1] [nM] | Kd [2] [nM] | Kd [3] [nM] | binding affinity for VLA4-Fc relative to human 2D-VCAM-1 [3] [fold] | fold improvement in binding relative to Q38L-2D-VCAM-1 [4] [fold] | Binder
– | – | 1.87 | 8 | 1 | Q38L-2D-VCAM-1 (ligand, also called Q38L 2D-VCAM-1 polypeptide; not shown: His tag) FKIETTPESRYLAQIGDSVSLTCSTTGCESPFFSWRTLIDSPLNGKVTNEGTTSTLTMNPVSFGNEHSYLCTATCESRKLEKGIQVEIYSFPKDPEIHLSGPLEAGKPITVKCSVADVYPFDRLEIDLLKGDHLMKSQEFLEDADRKSLETKSLEVTFTPVIEDIGKVLVCRAKLHIDEMDSVPTVRQAVKELQVYISP
1.2 | – | – | – | 74 | 2D-VCAM-1 variant Clone 146 (ligand, not shown: small tags and cut ends) FKIETTPESRYLAQIGDSVSLTCSTTGCESPLFFWRPLLDSPLNGKVTNEGTTSTLTMNPVSFGNEHSYLCTARCESRSLEKGIQVEIYSFPKDPEIHLSGPLEAGKPITVKCSVADVYPFDRLEIDLLKGDHLMKSQEFLEDADRKSLETKSLEVTFTPVIEDIGKVLVCRAKLHIDEMDSVPTVRQAVKELQVYISP
